In article PMC10942449 (bioRxiv, 2024):

Key:
[1] = biological target: DS-Cav1 (respiratory syncytial virus subtype A, strain A2 | not stated) (UniProt P03420); assay: SEC
[2] = biological target: DS-Cav1-His6 (respiratory syncytial virus subtype A, strain A2 | not stated) (UniProt P03420); assay: SEC
[3] = biological target: DS-Cav1-His6 (respiratory syncytial virus subtype A, strain A2 | not stated) (UniProt P03420); assay: cross-linking
[4] = biological target: sc9–10 DS-Cav1 (respiratory syncytial virus subtype A, strain A2 | not stated) (UniProt P03420); assay: SEC
[5] = biological target: sc9–10 DS-Cav1-His6 (respiratory syncytial virus subtype A, strain A2 | not stated) (UniProt P03420); assay: SEC
[6] = biological target: sc9–10 DS-Cav1-His6 (respiratory syncytial virus subtype A, strain A2 | not stated) (UniProt P03420); assay: cross-linking
UFCM1-P2 = UFCM1-P2 (human metapneumovirus, …, UniProt Q1A2Z0, E80D | T127C | N153C | A185P | V155P); assay: ELISA
UFCM1 = UFCM1 (human metapneumovirus, …, UniProt Q1A2Z0, E80D | T127C | N153C | A185P); assay: ELISA

## DS-Cav1 (from UniProt P03420 26-513) (domain or fragment)
[1]
  stoichiometry N: 3

## DS-Cav1-His6 (from UniProt P03420 26-513) (domain or fragment)
[2]
  stoichiometry N: 3
[3]
  stoichiometry N: 3

## sc9–10 DS-Cav1 (from UniProt P03420 26-513) (domain or fragment)
[4]
  stoichiometry N: 3

## sc9–10 DS-Cav1-His6 (from UniProt P03420 26-513) (domain or fragment)
[5]
  stoichiometry N: 3
[6]
  stoichiometry N: 3

B1: MPE8 IgG (antibody, V domains shown)
VH: EVQLVESGGGLVKPGGSLRLSCAASGFTFSSYSMNWVRQAPGKGLEWVSSISASSSYSDYADSAKGRFTISRDNAKTSLFLQMNSLRAEDTAIYFCARARATGYSSITPYFDIWGQGTLVTVSS
VL: QSVVTQTPSVSGAPGQRVTISCTGSSSNIGAGYDVHWYQQLPGTAPKLLIYDNNNRPSGVPDRFSASKSGTSASLAITGLQAEDEADYYCQSYDRNLSGVFGTGTKVTVL
UFCM1-P2
  binding result: binds
UFCM1
  binding result: binds
